Holding throughout (settings): both partners purified
The target in one test is T1, YFP-Myosin 7a MF2 (human, UniProt Q13402-1 1702-2215).
T1 construct: Myosin 7a, human, MF2, residues 1702-2215 of UniProt Q13402-1; pET14-YFP vector; also called ^YFPM7a MF2; source: E. coli (BL21-AI, BL21 (DE3) Rosetta or BL21-Gold (DE3)), purified (Histrap, CaptoQ, gel filtration)
T1 sequence (looked up): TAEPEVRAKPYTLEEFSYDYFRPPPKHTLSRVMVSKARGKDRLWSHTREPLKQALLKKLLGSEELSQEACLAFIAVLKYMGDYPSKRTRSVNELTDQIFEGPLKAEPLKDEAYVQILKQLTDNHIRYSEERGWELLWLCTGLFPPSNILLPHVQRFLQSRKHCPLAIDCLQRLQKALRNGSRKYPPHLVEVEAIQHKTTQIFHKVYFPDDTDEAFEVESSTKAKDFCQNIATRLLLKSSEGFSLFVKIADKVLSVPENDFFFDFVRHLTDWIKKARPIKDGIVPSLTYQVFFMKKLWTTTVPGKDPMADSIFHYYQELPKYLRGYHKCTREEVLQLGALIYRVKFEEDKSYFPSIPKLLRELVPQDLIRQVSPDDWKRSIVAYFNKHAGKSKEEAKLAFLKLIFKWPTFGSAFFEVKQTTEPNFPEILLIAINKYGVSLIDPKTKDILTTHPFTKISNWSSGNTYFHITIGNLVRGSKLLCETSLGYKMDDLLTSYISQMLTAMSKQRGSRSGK
The test can be described thus: MST; YFP-fused partner constant at 100 nM, non-fluorescent protein titrated (16 two-fold dilutions); 20 mM Hepes pH 7.0, 100 mM NaCl, 1 mM EGTA, 0.5 mM TCEP, 0.05% Tween 20; Monolith NT.115.

The target in the next test is T2, FL-harmonin-ΔCter (human, UniProt Q9Y6N9-1 1-542).
T2 construct: Harmonin-a1 (USH1C), human, residues 1-542 of UniProt Q9Y6N9-1; also called FL ΔCter; source: E. coli BL21 (DE3) Rosetta, purified (Glutathione Sepharose 4B, size-exclusion chromatography)
T2 sequence (looked up): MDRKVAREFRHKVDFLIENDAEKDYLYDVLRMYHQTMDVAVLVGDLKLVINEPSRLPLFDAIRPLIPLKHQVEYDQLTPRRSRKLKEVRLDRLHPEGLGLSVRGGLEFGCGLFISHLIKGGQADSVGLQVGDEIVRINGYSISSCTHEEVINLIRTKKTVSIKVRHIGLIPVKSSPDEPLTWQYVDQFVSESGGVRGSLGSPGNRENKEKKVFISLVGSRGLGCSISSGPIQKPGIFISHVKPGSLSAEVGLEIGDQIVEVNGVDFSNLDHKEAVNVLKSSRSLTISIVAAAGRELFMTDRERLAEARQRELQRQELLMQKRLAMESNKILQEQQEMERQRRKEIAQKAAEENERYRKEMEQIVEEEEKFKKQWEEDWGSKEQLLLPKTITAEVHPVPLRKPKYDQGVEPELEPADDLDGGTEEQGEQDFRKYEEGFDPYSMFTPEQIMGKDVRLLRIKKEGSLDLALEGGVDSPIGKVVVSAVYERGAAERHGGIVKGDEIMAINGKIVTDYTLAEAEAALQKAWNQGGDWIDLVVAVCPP
As to the kind of experiment: MST; as a1 but 150 mM NaCl (for FL-Harmonin-a); YFP-fused partner constant at 100 nM, non-fluorescent protein titrated.

For another test, the target named is T3, Myosin 7b MF2 (human, UniProt Q6PIF6 1605-2116).
T3 construct: also called M7b MF2; Myo7b MF2; source: E. coli (BL21-AI, BL21 (DE3) Rosetta or BL21-Gold (DE3)), purified (Histrap, CaptoQ, gel filtration)
T3 sequence (looked up): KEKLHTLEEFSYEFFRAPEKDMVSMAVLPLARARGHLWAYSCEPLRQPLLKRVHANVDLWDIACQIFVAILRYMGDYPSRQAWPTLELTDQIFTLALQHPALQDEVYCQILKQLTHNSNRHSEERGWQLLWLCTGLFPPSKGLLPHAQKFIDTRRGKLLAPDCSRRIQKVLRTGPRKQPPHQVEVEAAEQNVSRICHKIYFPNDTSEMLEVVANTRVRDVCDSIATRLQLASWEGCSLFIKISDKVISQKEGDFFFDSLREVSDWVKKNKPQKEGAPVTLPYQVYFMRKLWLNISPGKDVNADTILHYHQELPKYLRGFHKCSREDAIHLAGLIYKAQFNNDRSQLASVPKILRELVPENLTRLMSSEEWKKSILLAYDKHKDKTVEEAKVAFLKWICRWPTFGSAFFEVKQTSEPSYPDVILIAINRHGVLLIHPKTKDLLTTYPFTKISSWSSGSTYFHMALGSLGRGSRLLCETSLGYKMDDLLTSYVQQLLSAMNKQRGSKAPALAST
The test can be described thus: MST; YFP-fused partner constant at 100 nM, non-fluorescent protein titrated (16 two-fold dilutions); 20 mM Hepes pH 7.0, 100 mM NaCl, 1 mM EGTA, 0.5 mM TCEP, 0.05% Tween 20; Monolith NT.115.

The target in another test is T4, Myosin 7b MF2 L2083W (human, UniProt Q6PIF6 1605-2116, L2083W).
T4 construct: Myosin 7b, human, MF2, residues 1605-2116 of UniProt Q6PIF6; also called M7b MF2 L2083W; source: E. coli, purified similarly as wild type (Histrap, CaptoQ, gel filtration)
T4 sequence (looked up): T3 sequence (looked up) with L479W
The test is described as above.

Consider 2 molecules from PMC5493754, “Myosin 7 and its adaptors link cadherins to actin” (Nature Communications, 2017).

Positions count from the first letter of the chain named.

B1: Harmonin-a PDZ3c (non-fluorescent, as used in MST) (domain or fragment, human, UniProt Q9Y6N9-1 428-552, looked up)
chain: QDFRKYEEGFDPYSMFTPEQIMGKDVRLLRIKKEGSLDLALEGGVDSPIGKVVVSAVYERGAAERHGGIVKGDEIMAINGKIVTDYTLAEAEAALQKAWNQGGDWIDLVVAVCPPKEYDDELTFF
notes: Harmonin-a1 (USH1C), human, PDZ3 plus C-terminal peptide, residues 428-552 of UniProt Q9Y6N9-1; The methods say only that samples for ITC or crystallisation were digested with TEV protease; also called PDZ3c (isoA); source: E. coli BL21 (DE3) Rosetta, purified (Glutathione Sepharose 4B, size-exclusion chromatography)
For B1, in the test with YFP-Myosin 7a MF2, the Kd (commonly a measure of binding affinity in units of concentration) came out at 1400 ± 200 nM.

B2: YFP-Harmonin-a PDZ3c (domain or fragment, human, UniProt Q9Y6N9-1 428-552, looked up)
chain: B1 chain
notes: Harmonin-a1 (USH1C), human, residues 428-552 of UniProt Q9Y6N9-1; also called ^YFPPDZ3c (isoA); source: E. coli BL21 (DE3) Rosetta, purified (Glutathione Sepharose 4B, size-exclusion chromatography)
B2: the dissociation constant Kd was 2300 nM with FL-harmonin-ΔCter, 1900 ± 600 nM with Myosin 7b MF2 and more than 300000 nM with Myosin 7b MF2 L2083W.
